The text below walks through data of publication PMC5943153 (Molecular microbiology, 2018).

The labels stand for the following.
T1: T25-HP0221 (NifU) (Helicobacter pylori strain 26695, UniProt O25009 2-326)
T1 sequence (looked up): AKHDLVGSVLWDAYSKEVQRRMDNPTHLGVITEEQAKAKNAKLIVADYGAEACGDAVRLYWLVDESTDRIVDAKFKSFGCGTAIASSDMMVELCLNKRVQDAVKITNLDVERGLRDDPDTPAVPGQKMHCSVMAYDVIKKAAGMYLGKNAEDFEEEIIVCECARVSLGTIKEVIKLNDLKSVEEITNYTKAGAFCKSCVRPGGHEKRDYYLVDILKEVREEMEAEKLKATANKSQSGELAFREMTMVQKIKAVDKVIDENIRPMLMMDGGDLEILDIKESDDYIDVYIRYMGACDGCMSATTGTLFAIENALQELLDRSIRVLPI

T2: HP0221-T25 (NifU) (Helicobacter pylori strain 26695, UniProt O25009 2-326)
T2 sequence (looked up): T1 sequence (looked up)

T3: T25-HP1492 (Nfu) (Helicobacter pylori strain 26695, UniProt O26025 2-89)
T3 sequence (looked up): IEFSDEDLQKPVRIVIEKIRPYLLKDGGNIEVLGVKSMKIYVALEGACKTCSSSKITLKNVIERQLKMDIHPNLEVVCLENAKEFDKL

B1: T18-HP0654 (natural protein, Helicobacter pylori strain 26695, UniProt O25368 2-360, looked up)
chain: DFLEKVLDNQVTESKELVRLYDYDLYTLGEVADRMRQNMHQKIVYFNVNRHLNPSNICADACKFCAFSAHRKNPNPYEMSLEEILEKVKNSYNKGIKEVHIVSAHNPNYSYEWYLKVFETIKQEMPNLHLKAMTAAEVHFLSVKFNKPFELVLEDMLKAGVDSMPGGGAEIFDEEIRRKICNGKVGSSRWLEIHAYWHKLGKMSNATMLFGHIENKIHRIDHMLRIKKIQSPKNQVENKEGGFNAFIPLLYQKENNYLNVEKSPSAIEILKTIAISRILLNNIPHIKAYWATLGLNLALVAQEFGANDLDGTIEIESIQSAAGAKSRHGLEKEDLIFKIKDAGFVAVERDSLYNFIQKF
B2: T18-HP0631 (natural protein, Helicobacter pylori strain 26695, UniProt O25348 2-384, looked up)
chain: FYDEKKTYQKIEERLDIVRSFNAHNEHKNLQDEFKGAGISRRDLLKWAGMMSTALALPASFAPLTLKAVEVANRLPVIWLHMAECTGCSESLLRSADPTIDSIIFDYINLEYHETIMVASGFQAEKSLHDAIEKHKNNYILMVEGGIPQGTEYFLTQGPNAETGAEECRKAAQYAAAIFAIGTCSSFGGVQAAYPNPSNAQPLHKIIDKPVINVPGCPPSEKNIVGNVLYYLMFGALPKLDAYNRPSWAYGNRIHDLCERRGHFDAGEFVEHFGDENAKRGFCLYKMGCKGPYTFNNCSKLRFNSHTSWPIGAGHGCIGCSEPNFWDTMSPFEEPLANRSIKTAFDGLGADKVADKVGTTLLSATAIGIVAHALLSKAIKNKE
B3: T18-HP0665 (natural protein, Helicobacter pylori strain 26695, UniProt O25376 2-457, looked up)
chain: QTIDFEKFSQYSKPGPRYTSYPTAVEFNENFNEESLKTAFFNHDNLKNPMPLSLYTHLPFCRSACYFCACSVIYTSLEEKKIRYISYLKKELALLKNAMDTNREVAQFHYGGGTPTFFSPIQLDEITQSIQEVFPNFSKDIEMSCEIDPRHFTKEHMQTLFDRGFNRLSFGVQDFDFEVQKAIHRIQPFEMVQESVKLARDYGIKSINFDLIYGLPNQTKEGFLKTLEWVLKLDPDRLAVFNYAHVPWVKKTMRKIDETLLPSLRDKLEILESLISFLEKANYQMIGMDHFAKSDNELYLALQKAELRRNFQGYTTKKFTQTIGIGVTSIGEGGDYYTQNYKDLHHYEKALDLGHLPVERGVALSQEDVLRKEVIMQMMSNLKLDYSKIEEKFSVDFKAHFKKELEKLKPYEEAGLLSFNSKGFEMTKTGGMLVRNMAMEFDAYLRGGEKHFSKTL
B4: T18-HP0656 (natural protein, Helicobacter pylori strain 26695, UniProt O25370 2-383, looked up)
chain: ARNVKGYASTLTWTITRNTLNFLWEQGFKMRINREEILDLMKNAPLKELGQRALRVKQRLHPENLTTFIVDRNINYTNICFVDCKFCAFKRTLKEKDAYVLSYEEIDQKIEELLAIGGTQILFQGGVHPQLKIDYYENLVSHIAQKFPTITIHGFSAVEIDYISKISKLSLKEVLERLKNAGLSSIPGAGAEVLSDRVRDVIAPKKLSSDRWIEVHRMAHLCGIKSTATMMFGSVDNEEDVVEHLQRVRDLQDETGGFRAFILWSFQPNNTPLKEEIPSIKKASSNRYLRYLACSRIFLDNIQNIQSSWVTQGSMIGQLALLFGANDLGSVMMEENVVKAAGTSFCMNEAGMIELIEDIGSVAAKRNTAYEILKRYPAKAKV
B5: T18-HP0625 (natural protein, Helicobacter pylori strain 26695, UniProt O25342 2-359, looked up)
chain: LENRVKTKQIFIGGVAIGGDAPISTQSMTFSKTADIESTKNQIDRLKLAGADLVRVAVSNEKDALALKELKKVSPLPLIADIHFHYKFALIAAQSVDAIRINPGNIGSKEKIKAVVDACKEKNIPIRIGVNAGSLEKQFDQKYGPTPKGMVESALYNAKLLEDLDFTNFKISLKASDVIRTIEAYRMLRPLVIYPFHLGVTEAGNLFSSSIKSAMALGGLLMEGIGDTMRVSITGELENEIKVARAILRHSGRLKEGINWISCPTCGRIEANLVDMAIKVEKRLSHIKTPLDISVMGCVVNALGEAKHADMAIAFGNRSGLIIKEGKVIHKLAEKDLFETFVIEVENLAKEREKSLKD
B6: T18-HP0117 (natural protein, Helicobacter pylori strain 26695, UniProt P56080 2-308, looked up)
chain: AKENPPIVFGPVLSRRFGKSLGVDLSPSKKQCNYNCIYCELGKAKPIERMEEVIKVETLINAIQNALNNLTTPIDVLTITANGEPTLYPHLLELIQSIKPFLKGVKTLILSNGSLFYEPKVQQALKEFDIVKFSLDAIDLKAFERVDKPYSKDINKILEGILRFSQIYQGQLVAEVLLIKGVNDSANNLKLIAAFLKQINIARVDLSTIDRPSSFKAPKLSEDELLKCSLFFEGLCVSLPKRSITQAKKLISCGIDELLALISRRPLSAEEAPLILDSNAFKHLETLLNHKQITIKKVGSLEFYCAF
B7: T18-HP0779 (natural protein, Helicobacter pylori strain 26695, UniProt P56418 2-852, looked up)
chain: KDFLEDYKKSVSERGSEGIPPLPLNAKQVQAVVEILTKDPTNAAFAKELLIHRVSPGVDEGAKVKAEFLAKLSQKKLECVHISALEATTLLGTMLGGYNVEPLIMGLESQDKNIAKESAKALKTTLLVYGSFDKIAAMSKTNALAKEVLESWANAEWFLNKEPLNECIEACVFKIDGETNTDDLSPASDAFTRSDIPLHAKAMLKNRIENYEQRIKAIKTKGVPVAYVGDVVGTGSSRKSATNSIMWHFGKDIPFVPNKRSGGIVIGGVIAPIFFATCEDSGALPIVADVKDLKEGDLIKIYPYKGEITLNDKVVSTFKLEPETLLDEVRASGRIPLIIGRGLTNKARKFLGLGESEAFKKPSAPKSDAKGYTLAQKIVGHACGVKGILPGTYCEPKVTTVGSQDTTGAMTRDEVKELASLKFDAPFVLQSFCHTAAYPKPSDVSLHATLPGFITQRGGVALHPGDGVIHTWLNRMGLPDTLGTGGDSHTRFPLGISFPAGSGLVAFAAVTGTMPLNMPESVLVRFKGEMNPGITLRDLVNAIPYYAIKKGLLTVEKKGKINVFNGRILEIEGLPDIKMEQAFELSDASAERSAAACVVRLNKEPMIEYLKSNIKLIDEMIASGYEDKETLKKRRDAMQAWVDNPVLLEPDSNAQYAAVIEIDVAEITEPILACPNDPDDVATLSEVLADTTGKRPHAIDEVFIGSCMTNIGHFRAFGEIVKNAPPSQARLWVVPPSKMDEQELINEGYYAIFGAAGARTEVPGCSLCMGNQARVRDNAVVFSTSTRNFDNRMGRGAKVYLGSAELGAACALLGRIPTKEEYMNLVSEKLESQKDKIYRYMNFNLMENFRL
B8: T18-HP0285 (natural protein, Helicobacter pylori strain 26695, UniProt P56130 2-418, looked up)
chain: KKVYFKTFGCRTNLFDTQVMSENLKDFSTTLEEQEADIIIINSCTVTNGADSAVRSYAKKMARLDKEVLFTGCGVKTQGKELFEKGFLKGVFGHDNKEKINALLQEKKRFFIDDNLENKHLDTTMVSEFVGKTRAFIKIQEGCDFDCNYCIIPSVRGRARSFEERKILEQVGLLCSKGVQEVVLTGTNVGSYGKDRGSNIARLIKKLSQIAGLKRIRIGSLEPNQINDEFLELLEEDFLEKHLHIALQHSHDLMLERMNRRNRTKSDRELLETIASKNFAIGTDFIVGHPGESGSVFEKAFKNLESLPLTHIHPFIYSKRKDTPSSLMTDSVSLEDSKKRLNAIKDLIFHKNKAFRQLQLKLNTPLKALVEVQKDGEFKALDQFFNPIKIKSDKPLRASFLEIKEYEIKERENHAVF
B9: T18-HP1222 (natural protein, Helicobacter pylori strain 26695, UniProt O25820 2-948, looked up)
chain: RVEENYHAFFTEASGFLNERIFKDYLRRLAYGIDASCYRYIPKIVAWVKNEEEVQKLCVLAKKHGVSLTFRAAGSSLSGQAICDGVLVMVTHFFKDAQILDNAQSIQLSCGVIGSNANALLKPYHKKIGPDPSTINTAMIGGIVANNASGMCCGVEQNSYKTLKSLRVILADGTLLDTANQESVESFKNAHKDLIEGVLNLRKEILEDKELHALIKKKYEIKNTTGYSLNALIDFEDPIEIISHLFIGSEGTLGFISSVELECVKDYAYKTCALLFYENLERCAKAAQILAALKAKQPEMISSAELMDYACLKSVKGLEGMPSVVLEIKEPNACLLIQSESDDPLILENSMQTILNALSAIPVVLDSQISSDPSIYQSWWKIRKGIFPIAASKRKSQSSVIIEDICFSQEDFVEGAKAIEGLLKKHGFKDNGIIFGHALSGNLHFVVTPILENEAERKAFENLVSEMFLMVSKSSGSIKAEHGTGRMVAPFVEMEWGEKAYKIHKQIKELFDPNGILNPDVIITNDKEIHTKNLKSIYPIEEHLDMCMECGFCERICPSKDLSLTPRQRIVIHREVEHLKERVSHGHHEDQVLLDELLKESEYLAHATCAVCHMCSTLCPLEIDTGKIALNYYQKNPKGEKIASKILNHMQTTTSMARFSLKSARLVQNLIGSHNLVSLTKGIKKFIKPFPKAFYYMPKNNAYPLENKTLKSEEKVIYFSTCINRSFAPSNKMADKRCIQEVFESLCQKAKVSVMYPNGLNALCCGKAFINYTDLTKQNNEKNHAIFLQLSDKGKIPIVLDHSACSTHFFKQMKAYKDLKVYDLSVYIEEVLSPKLKFNPINEDIGLYTMCALKLENKEELLFNLAKKCTLGEIVIHKETGCCGFAGNKGFFTPELNESALNGFQAFYQSYDLKRGFSTSSTCEIGLSEKTRFSWQHIAYLVDACTL

For one assay, the target named is T1, T25-HP0221 (NifU). The assay can be described thus: two-hybrid.
B1: the “growth OD595 in M63-maltose” value came out at 0.09 OD595.

As to B2, the “growth OD595 in M63-maltose” value amounted to 0.08 OD595.

For the molecule B3, the “growth OD595 in M63-maltose” value was determined as 0.07 OD595.

As to B4, the “growth OD595 in M63-maltose” value came to 0.13 OD595.

On to B5, for which the “growth OD595 in M63-maltose” value was found to be 0.11 OD595.

The next assay deals with T2, HP0221-T25 (NifU). The assay can be described thus: two-hybrid.
B1: the “growth OD595 in M63-maltose” value turned out to be 0.33 OD595.

Turning to B2, the “growth OD595 in M63-maltose” value was 0.24 OD595.

With B3, the “growth OD595 in M63-maltose” value turned out to be 0.06 OD595.

On to B4, for which the “growth OD595 in M63-maltose” value was found to be 0.26 OD595.

B5: the “growth OD595 in M63-maltose” value was 0.37 OD595.

The target of another assay is T3, T25-HP1492 (Nfu). Nature of the assay: two-hybrid.
B6: the “growth OD595 in M63-maltose” value came to 0.09 OD595.

As to B7, the “growth OD595 in M63-maltose” value is 0.17 OD595.

For the molecule B8, the “growth OD595 in M63-maltose” value came to 0.21 OD595.

B9: the “growth OD595 in M63-maltose” value turned out to be 0.06 OD595.
